Data from patent US20240228645A1 (DRAGONFLY THERAPEUTICS, published 2024).
Where two headings read alike, the source gives them in different places.

How the values were obtained:
[1] = biological target: T1, human BAFF-R expressed on cells (hBAFF-R-CHO isogenic CHO cells; BAFF-R+ cancer cells) (human, UniProt Q96RJ3 1-184); assay: flow cytometry on hBAFFR-CHO cells, anti-mouse IgG(H+L)-PE
T1 construct: whole, on cells; also called hBAFF-R^+ cells; BAFF-R+ CHO cells

[2] = biological target: T1, human BAFF-R expressed on cells …; assay: as above; remark: listed apart in the source

Row | EC50 (read off the curve) [1] [nM] | EC50 (read off the curve) [2] [nM] | Binder
1 | ~1 | – | 10H7-C5 (antibody, V domains shown, Hybridoma clone from DNA-immunized SWR/J mice; also called clone 10H7-C5) VH: EVQLVESGGGLVKPGGSLKLSCAASGFSFSRYAMSWVRQTPEKRLEWVATISDGGSYTHYRDNVKGRFTISRDNAKNNLNLQMSHLKSEDTAIYYCARNEMGLYFDYDVYAMDYWGQGTSVTVSS VL: DIVMTQTPLSLPVSLGDQASISCRSSQSLLHSNGNTYLYWYLQKPGQSPKLLIHRVSNRFSGVPDRFGGSGSGTDFTLKIIRVEAEDLGVYFCFQGTHVPWTFGGGTKLEIK
2 | 1 to 2 | – | 1B3-A7 (antibody, V domains shown, Hybridoma clone from DNA-immunized SWR/J mice; also called clone 1B3-A7) VH: EVQLVESGGGLVKPGGSLKLSCVVSGFTFSNYAMSWVRQTPEKRLEWVATISDGGGYTYYPDSVKGRFTISRDNAKNNLYLQMSHLKSEDTAIYYCARDDLGGGNYVSSYFDVWGTGTTVTVSS VL: DVVMTQTPLSLPVSPGDQASISCRSSQSLVHSNGNTYLYWYLQKPGQSPKLLIYRVSNRFSGVPDRFSGSGSGTDFTLKINRVEAEDLGVYFCFQGTHVPLTFGSGTKLELK
3 | – | ~0.3 | 3A1 (antibody, V domains shown, Hybridoma clone from DNA-immunized SWR/J mice; also called clone 3A1) VH: QVQLQQPGAELVKPGASVKLSCKASGYTFTSYWMHWVKQRPGQGLEWIGEIDPFDSYTNYNQNFKGKATLTVDKSSSTAYMLLSSLTSDDSAVYYCARERLRLWSYYFDYWGQGTTLTVSS VL: DVVMTQTPLSLPVSLGDQASISCRSSQSIVHSNGNTYLEWYLQKPGQSPKLLIYKVSNRLSGVPDRFSGSGSGTDFTLKISRVEAEDLGVYYCFQGSHDPFTFGSGTKLEIK
4 | – | ~0.3 | 7G4 (antibody, V domains shown, Hybridoma clone from DNA-immunized SWR/J mice; also called clone 7G4) VH: QVQLQQPGAELVKPGASVKLSCKASGYTFTSYWMHWVKQRPGQGLEWIGEVDPSDSYTNYNQKFKGKATLTVDKSSSTAYILLSNLTSDDSAVYYCARERVRLWSYFFDYWGQGTTLTVSS VL: DVVMTQTPLSLPVSLGDQASISCRSSQSIVHSNGNTYLEWYLQKPGQSPKLLIYKVSNRLSGVPDRFSGSGSGTDFTLKISRVEAEDLGVYYCFQGSHDPFTFGSGTKLEIK
